From PMC9775280, “A Simple Label-Free Aptamer-Based Electrochemical Biosensor for the Sensitive Detection of C-Reactive Proteins”

Experiments:
[1] = molecular target: B-type brain natriuretic peptide (BNP) (UniProt P16860 103-134); experiment: electrochemical aptasensor (DPV); 1 ng/mL; current below blank, attributed to physical adsorption; PBS as solvent, 100 uL sample; DPV -0.6 to 0 V, peak about -0.4 V; BSA-blocked electrode; pH, salt and assay temperature not stated; settings: protein: commercial
PSA (PSA standard) = PSA (PSA standard) (UniProt P07288 25-261); experiment: as above; settings: protein: commercial
C-reactive protein (CRP) = molecular target: T1, C-reactive protein (CRP) (UniProt P02741 19-224); experiment: electrochemical aptasensor (DPV); 1 ng/mL CRP; aptamer immobilized on SPE/AuNPs/GO-COOH, BSA-blocked; linear range 0.001-100 ng/mL, LOD 2.941e-4 ng/mL; PBS as solvent, 100 uL sample; DPV -0.6 to 0 V, peak about -0.4 V; BSA-blocked electrode; pH, salt and assay temperature not stated; settings: protein: commercial; chain copies: 5
T1 sequence: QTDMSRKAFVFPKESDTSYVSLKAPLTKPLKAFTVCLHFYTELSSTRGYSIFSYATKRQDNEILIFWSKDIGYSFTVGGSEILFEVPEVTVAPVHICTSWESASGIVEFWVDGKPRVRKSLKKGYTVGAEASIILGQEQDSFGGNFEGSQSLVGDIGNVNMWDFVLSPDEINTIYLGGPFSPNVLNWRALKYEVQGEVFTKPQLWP

Sequence of PSA (PSA standard) (P07288 25-261): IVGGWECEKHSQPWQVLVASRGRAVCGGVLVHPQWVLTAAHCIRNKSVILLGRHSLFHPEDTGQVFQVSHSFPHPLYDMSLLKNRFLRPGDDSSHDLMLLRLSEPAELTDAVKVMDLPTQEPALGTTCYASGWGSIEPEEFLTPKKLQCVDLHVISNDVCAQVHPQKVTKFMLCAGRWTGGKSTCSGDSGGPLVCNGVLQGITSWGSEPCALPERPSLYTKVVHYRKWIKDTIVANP
Sequence of B-type brain natriuretic peptide (BNP) (P16860 103-134): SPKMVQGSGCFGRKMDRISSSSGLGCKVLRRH

GCCTGTAAGGTGGTCGGTGTGGCGAGTGTGTTAGGAGAGATTGC (ssDNA, 5'-NH2) [CRP aptamer]: no binding [1]; no binding (PSA (PSA standard)); binds (C-reactive protein (CRP)).
